Data taken from patent US20070128190A1 (GLENMARK PHARMACEUTICALS S A, published 2007).
Where two headings read alike, the source gives them in different places.

What was measured:
TMC-2206 [1] = target: T1, TMC-2206; test: ELISA, GST fusion protein on immobilized TMC-2206
T1 construct: murine IgG1/κ secreted by hybridoma BHA2.1; labelled with Eu-N1-ITC where used as tracer; also called BHA2.1
Experimental: The Kᵢ assays were performed as described above in Example 2. […] Plates were sealed and coating occurred overnight at 4° C. The next morning, the plates were washed twice with TBS solution and then blocked using 200 μL of the blocking solution described above for 1 hour at room temperature with shaking. After blocking, the blocking solution was removed but the wells were not washed. Instead, a serial dilution of GST fusion protein was made, added to the wells and then incubated for 2 hours at room temperature with shaking. The wells were then aspirated and a TBS washing buffer applied for 5 minutes at room temperature. The washing step was repeated twice more before the secondary antibody was applied. The secondary antibody step consisted of Amersham's HRP-conjugated rabbit anti-GST antibody diluted 1:2000 in blocking buffer. One hundred μL of secondary antibody was added to each well and incubated at room temperature for 1.5 hours with shaking. The wells were again aspirated and washed three times with wash buffer before adding the substrate reaction mixture. One hundred μL of substrate reaction mixture (1:1 dilution of TMB kit) was then added to each well for 6 minutes. […] The reaction within the wells was then read and quantified by spectrophotometric absorption using the Molecular Dynamics plate reader and associated Softmax software, respectively. […]

TMC-2206 [2] = target: T1, TMC-2206; test: fusion protein competing Eu-TMC-2206 off α2β1-coated plate
Experimental: After incubating the sealed plates for 1 hr at 37° C. to allow binding to reach equilibrium, 2 μL samples were transferred from each well into a fresh well containing DELFIA Enhancement Solution (100 μL/well; Perkin-Elmer) for the measurement of free (unbound) label. Enhancement Solution (100 μL/well) was added to the emptied wells for the measurement of bound label. The plate was shaken (Titer Plate Shaker speed setting of 5 for 5 minutes at room temperature) and time-resolved fluorescent (TRF) intensities were read using a Victor2 multi-label plate reader (Perkin-Elmer Wallac, Boston, Mas.).
The fusion proteins were then expressed and purified as described above for the human GST-α2 I domain fusion protein. […] Therefore, these and the primate fusion proteins were further purified by size exclusion chromatography on a Sephadex 75 10/30 (GE-Amersham) column (primate) by FPLC on an Akta-Basic FPLC system (GE-Amersham) to yield a monomeric fraction. […] The Kᵢ assays were performed as described above in Example 2. […] Plates were sealed and coating occurred overnight at 4° C. The next morning, the plates were washed twice with TBS solution and then blocked using 200 μL of the blocking solution described above for 1 hour at room temperature with shaking. After blocking, the blocking solution was removed but the wells were not washed. […]

TMC-2206 [3] = target: T1, TMC-2206; test: as above; remark: listed apart in the source
Experimental: Wells in a 96 well microtiter plate were coated with platelet α2β1-integrin (custom-coated with human platelet α2β1 by GTI Inc., Wis.) and then blocked with nonfat milk. […] After concentration in prewashed MicroSep concentrators (30-kDa cutoff; Pall Life Sciences at 9500 rpm (7000×g) in a JA-20 rotor (Beckman Instruments, Inc.) for 20 minutes at 4° C.), antibodies were adjusted to 4.0 mg/mL with PBS containing a final concentration of 100 mM NaHCO₃, pH 9.3. The mAb/bicarbonate mixture (0.250 mL) was gently mixed into a vial containing 0.2 mg N¹-(p-isothiocyanatobenzyl)-diethylenetriamine-N¹,N²,N³N³-tetraacetic acid chelated with Eu³⁺ (Eu-N1-ITC; Perkin Elmer Life Sciences) and reacted overnight at 4° C. without stirring. Each labeled antibody mixture was applied to a separate PD-10 column (GE Biosciences, Piscataway, N.J.) pre-equilibrated with Running Buffer (50 mM Tris, pH 7.4 and 138 mM NaCl). Fractions (0.5 mL) were collected and assayed for total protein (Bradford reagent; Bio-Rad Laboratories, Hercules, Calif.) using a SpectraMax 384 absorbance plate reader and for europium after 1:10.000 dilution in DELFIA Enhancement Solution (Perkin-Elmer) by time-resolved fluorescence (TRF) using a Victor2 multi-label plate reader (Perkin Elmer). The fractions that were positive for both protein and Eu label were pooled and applied to new PD-10 columns and samples collected and assayed for total protein and for europium content by TRF calibrated against a europium standard solution (Perkin-Elmer) to calculate the fluor: protein ratio.

TMC-2206 [4] = target: T1, TMC-2206; test: as above; remark: listed apart in the source
[5] = target: T2, Humanized TMC-2206 (hIgG4/κ VH12.0/VL10.0Q); test: fusion protein competing Eu-humanized TMC-2206 off α2β1-coated plates
T2 construct: labelled with Eu or Alexa-488 in some assays
Description: The inhibition curves were fitted with the “one site competition” model using Prism software (GraphPad, Inc.) to obtain IC₅₀ values and to calculate the Kᵢ using the equation of Cheng and Prusoff (1973) and the respective values for KD from above.
The cloning of the human, rhesus macaque, rat, and mouse α2 I domains were described in Example 12. Cynomolgus and additional rhesus monkey α2 I domains were cloned from cDNA derived from total RNA extracted from skin tissue (MediCorp, Inc., Montreal, QC).

T2 sequence (heavy, as listed by the source, chain 1 of 2): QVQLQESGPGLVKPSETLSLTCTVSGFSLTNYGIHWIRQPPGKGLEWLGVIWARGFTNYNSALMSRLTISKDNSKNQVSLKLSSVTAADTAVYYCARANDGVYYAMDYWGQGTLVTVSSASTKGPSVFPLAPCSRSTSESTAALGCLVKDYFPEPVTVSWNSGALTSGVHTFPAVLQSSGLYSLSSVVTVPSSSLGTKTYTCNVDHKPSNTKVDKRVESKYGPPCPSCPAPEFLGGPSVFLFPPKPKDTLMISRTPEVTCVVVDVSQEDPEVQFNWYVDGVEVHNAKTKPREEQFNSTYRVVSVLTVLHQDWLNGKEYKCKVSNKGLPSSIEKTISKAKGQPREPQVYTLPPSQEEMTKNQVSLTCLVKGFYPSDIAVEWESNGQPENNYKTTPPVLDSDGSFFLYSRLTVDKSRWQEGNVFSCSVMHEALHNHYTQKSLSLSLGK
T2 sequence (light, as listed by the source, chain 2 of 2): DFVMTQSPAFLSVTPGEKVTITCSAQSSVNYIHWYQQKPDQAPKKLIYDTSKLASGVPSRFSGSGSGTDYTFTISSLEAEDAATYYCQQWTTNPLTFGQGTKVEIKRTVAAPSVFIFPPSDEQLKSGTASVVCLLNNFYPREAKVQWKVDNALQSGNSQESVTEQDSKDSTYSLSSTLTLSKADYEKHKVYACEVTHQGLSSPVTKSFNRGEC

B1: GST-cynomolgus α2 I domain fusion protein of Example 12 (aspartic acid at position 40) (other)
chain: SPDFQLSASFSPATQPCPSLIDVVVVCDESNSIYPWDAVDNFLEKFVQGLDIGPTKTQVGLIQYANNPRVVFNLNTYKTKEEMIVATSQTSQYGGDLTNTFGAIQYARKYAYSAASGGRRSATKVMVVVTDGESHDGSMLKAVIDQCNHDNILRFGIAVLGYLNRNALDTKNLIKEIKAIASIPTERYFFNVSDEAALLEKAGTLGEQIFSIEGTV
notes: also called cynomolgus monkey GST-α2 I; polymorphic cynomolgus I domain; not shown: glutathione S-transferase tag encoded by vector pGEX-2TK
B1: no binding (tested: 40 nM) (TMC-2206 [1]).

B2: GST-human α2 I domain fusion protein (other)
chain: GSSPDFQLSASFSPATQPCPSLIDVVVVCDESNSIYPWDAVKNFLEKFVQGLDIGPTKTQVGLIQYANNPRVVFNLNTYKTKEEMIVATSQTSQYGGDLTNTFGAIQYARKYAYSAASGGRRSATKVMVVVTDGESHDGSMLKAVIDQCNHDNILRFGIAVLGYLNRNALDTKNLIKEIKAIASIPTERYFFNVSDEAALLEKAGTLGEQIFSIEGTVEFIVTD
notes: the reverse primer ends at ...SIEGTV; also called GST-α2 I domain; hα2I; not shown: glutathione S-transferase tag encoded by vector pGEX-2TK
In the case of B2, the Ki (TMC-2206 [2]) is reported as 0.33 nM, the Ki (TMC-2206 [3]) is reported as 0.18 nM and the Ki (TMC-2206 [4]) is reported as 0.28 nM. For the same binder, the Ki [5] was 0.57 nM.

B3: GST-mouse α2 I domain fusion protein (other)
chain: SPDFQFLTSFSPAVQACPSLVDVVVVCDESNSIYPWEAVKNFLVKFVTGLDIGPKKTQVALIQYANEPRIIFNLNDFETKEDMVQATSETRQHGGDLTNTFRAIEFARDYAYSQTSGGRPGATKVMVVVTDGESHDGSKLKTVIQQCNDDEILRFGIAVLGYLNRNALDTKNLIKEIKAIASTPTERYFFNVSDEAALLEKAGTLGEQIFSIEGTVQGGDNFQMEMSQ
notes: also called murine α2 I-GST fusion protein; not shown: glutathione S-transferase tag encoded by vector pGEX-2TK
B3 was tested, and the “fold shift in affinity” value (TMC-2206 [1]) was greater than 1500 fold.
